# Laboratory results published in patent US7919104B2, “Functional epitopes of Streptococcus pneumoniae PsaA antigen and uses thereof” (priority 2005, dated 2011).
# Entries after “also recorded” stand apart in the source; their conditions may differ.
# Experiments:
# Detroit 562 cells = assay: Competitive inhibition of adherence of rPsaA-coated fluospheres to Detroit 562 cells; type: cell-based, human; conditions: competitor 100 μg (so in the source)
# P4 beads [1] = target: T1, P4 beads (Streptococcus pneumoniae serotype 4, UniProt P0A4G2, D258K/D259R); assay: Mouse immunization: serum % IA of P4 beads (anti P4 activity); type: in vivo; conditions: sera 1:32 dilution
# T1 sequence (P0A4G2 251-278 D258K/D259R): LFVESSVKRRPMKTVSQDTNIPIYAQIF
# Experimental: (§1) Serum inhibition of adherence assays were performed as previously described for the inhibition of pneumococcal adherence (Romero-Steiner). Two buffer solutions were found suitable for this type of assay: solution 1 (EMEM medium—Hanks buffered saline with Ca++ and Mg++ supplemented with 0.2% BSA) as previously reported (Romero-Steiner) or solution 2 (PBS 10 mM, pH7.2-7.4 supplemented with 1% BSA and 0.5% BSA for washes) as described below. Use of one buffer solution in preference to the other depended on availability of BSA (Sigma cat #A2153). Alternative preparations of BSA were evaluated but were not found suitable for this assay due to toxicity to the cell monolayer. Briefly, confluent monolayers of Detroit 562 cells were washed once with 130 μl/well of PBS buffer+0.5% BSA. A 45 μl volume of PBS buffer+1% BSA was added to each well and the plate was incubated while preparing serum dilutions in a replicate plate (U-bottom Costar). Serum dilutions in the replica plate could be performed in a 2-fold or 3-fold dilution scheme. For the 2-fold dilution scheme, a 10 μl volume of test or control serum was added to the first row of wells (B2-B11) already containing 70 μl of PBS+1% BSA. A 40 μl volume of PBS+1% BSA was added to the remainder of the wells including the outer perimeter. The sera from row B was serially diluted into rows C-F with a multichannel pipetor set at 40 μl (2-fold). The last 401 was discarded into the waste. Serum was not added to the adherence control wells (row G or column 11). A 20 μl volume of the optimal fluosphere dilution (usually 1:100 or 1:150, containing ˜3,100 fluospheres) was added to each well, including serum-free controls. The fluosphere suspension was sonicated for 3 minutes prior to addition to the center of the wells to generate a single fluosphere suspension. The microtiter plate was mixed by tapping the sides gently and incubated for 15 minutes at 37° C., 5% CO2. At the end of the incubation period, 55 μl/well was replica plated into the microtiter plate containing the washed monolayers containing 45 μl of PBS+1% BSA. The final well volume was always adjusted to 100-μl volume regardless of the serum dilution scheme used (2-fold or 3-fold) to control the reproducibility of fluosphere adherence The plate was mixed by tapping the sides gently and incubated for 2 hours at 37° C., 5% CO2. Following incubation, plates were washed 5 times with 130 μl/well of PBS+0.5% BSA. The plates were allowed to dry before reading in a fluorometer (BioTek, FLX 800) at 485 nm for excitation and emission at 520 nm. The percent inhibition of adherence (IA) was calculated as compared to adherence controls. The following formula was used: % IA=100-(test well FU×100)/controls mean FU.
# P4 beads [2] = target: T2, P4 beads (Streptococcus pneumoniae serotype 4, UniProt P0A4G2); assay: as above; type: in vivo
# T2 sequence (P0A4G2 251-278 D258K/D259R): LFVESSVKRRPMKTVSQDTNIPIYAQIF
# Experimental: as §1
# [3] = system: HL-60, RAW 264.7 and Detroit 562 cells; assay: P4 activation of phagocytes and epithelial cells (cytokine release, TEM); type: cell-based
# Experimental: Cell suspensions of HL-60 (promyelocytes) and RAW 264.7 (monocytes), and Detroit 562 cells (nasopharyngeal epithelial cells) were centrifuged at 1000 rpm-10 min and the pellet was resuspended in 1 ml PBS buffer. To this, P4 solution (1 mg/ml) was added at 10% (v/v) concentration, mixed by inverting few times and incubated at 37° C., 5% CO2 for 15 min (HL-60 and RAW) or 30 min (Detroit 562). After incubation, the cells were centrifuged again and the supernatant was analyzed for cytokines and the cell pellet was washed once in PBS, fixed in 2% glutaraldehyde and processed for transmission electron microscopic (TEM) analysis.
# [4] = system: LEC-5 and NEO fibroblast cell lines; assay: Growth of fibroblasts with P4 treated cell supernatant; type: cell-based; conditions: supernatant of P4 treated cells with higher FGFbasic, different concentrations
# Experimental: 2 fibroblast cell lines, LEC-5 and NEO, were used. These cells were grown in a 96 well titer plates until they become confluent (˜6 days). To this, the P4 treated cell supernatant that had higher concentration of FGFbasic was added at different concentrations and the growth was monitored fluormetrically with the help of a fluorometric metabolic indicator.
# PsaA beads = target: T3, PsaA beads (Streptococcus pneumoniae serotype 4, UniProt P0A4G2); assay: Mouse immunization: serum % IA of PsaA beads (anti PsaA activity); type: in vivo
# T3 construct: Both, rPsaA (MW 34,079 daltons) and the synthetic peptides were non-lipidated; purchased Aventis-Pasteur, Toronto, Ontario, Canada (donated)
# T3 sequence (P0A4G2 20-309): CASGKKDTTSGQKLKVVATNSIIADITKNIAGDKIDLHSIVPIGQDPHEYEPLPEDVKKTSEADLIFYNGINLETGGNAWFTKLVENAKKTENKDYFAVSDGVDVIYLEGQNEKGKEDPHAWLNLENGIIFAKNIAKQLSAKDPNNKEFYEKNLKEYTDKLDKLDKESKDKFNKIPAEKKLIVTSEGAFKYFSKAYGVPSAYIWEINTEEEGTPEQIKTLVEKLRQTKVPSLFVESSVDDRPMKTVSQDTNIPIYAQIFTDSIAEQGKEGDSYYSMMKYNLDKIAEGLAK
# Experimental: as §1
# [5] = mice serum dilution factor 8, 7th day
# [6] = mice serum dilution factor 8, 11th day
# [7] = mice serum dilution factor 16, 7th day
# [8] = mice serum dilution factor 16, 11th day
# [9] = mice serum dilution factor 32, 7th day
# [10] = mice serum dilution factor 32, 11th day
# [11] = mice serum dilution factor 64, 7th day
# [12] = mice serum dilution factor 64, 11th day
# [13] = mice serum dilution factor 128, 7th day
# [14] = mice serum dilution factor 128, 11th day
# [15] = mice serum dilution factor 256, 7th day
# [16] = mice serum dilution factor 256, 11th day
# [17] = mice serum dilution factor 512, 7th day
# [18] = mice serum dilution factor 512, 11th day
# [19] = mice serum dilution factor 1024, 7th day
# [20] = mice serum dilution factor 1024, 11th day
# [21] = mice serum dilution factor 2048, 7th day
# [22] = mice serum dilution factor 2048, 11th day
# [23] = mice serum dilution factor 4096, 7th day
# [24] = mice serum dilution factor 4096, 11th day
# [25] = P4 solution (1 mg/ml) at 10% (v/v), 15 or 30 min
molecule,measurement,setting,value
"LFVESSVKRRPMKTVSQDTNIPIYAQIF [P4, non-branched synthetic peptide, PsaA amino acid residues 251 to 278 with DD changed to KR]",reduction in FU of PsaA-coated beads,Detroit 562 cells,68%
same,inhibition of adherence detected in sera from immunized mice,P4 beads [1],Up to 45%
same,Anti P4 activity (% IA of P4 beads),P4 beads [2]; [5],81%
same,Anti P4 activity (% IA of P4 beads),P4 beads [2]; [6],95%
same,Anti P4 activity (% IA of P4 beads),P4 beads [2]; [7],40%
same,Anti P4 activity (% IA of P4 beads),P4 beads [2]; [8],44%
same,Anti P4 activity (% IA of P4 beads),P4 beads [2]; [9],31%
same,Anti P4 activity (% IA of P4 beads),P4 beads [2]; [10],45%
same,Anti P4 activity (% IA of P4 beads),P4 beads [2]; [11],0%
same,Anti P4 activity (% IA of P4 beads),P4 beads [2]; [12],4%
same,Anti P4 activity (% IA of P4 beads),P4 beads [2]; [13],0%
same,Anti P4 activity (% IA of P4 beads),P4 beads [2]; [14],0%
same,Anti P4 activity (% IA of P4 beads),P4 beads [2]; [15],0%
same,Anti P4 activity (% IA of P4 beads),P4 beads [2]; [16],0%
same,Anti P4 activity (% IA of P4 beads),P4 beads [2]; [17],0%
same,Anti P4 activity (% IA of P4 beads),P4 beads [2]; [18],0%
same,Anti P4 activity (% IA of P4 beads),P4 beads [2]; [19],0%
same,Anti P4 activity (% IA of P4 beads),P4 beads [2]; [20],0%
same,Anti P4 activity (% IA of P4 beads),P4 beads [2]; [21],0%
same,Anti P4 activity (% IA of P4 beads),P4 beads [2]; [22],0%
same,Anti P4 activity (% IA of P4 beads),P4 beads [2]; [23],0%
same,Anti P4 activity (% IA of P4 beads),P4 beads [2]; [24],0%
same,bacterial adherence to P4 treated NP cells,[3]; Detroit 562 NP cells exposed to P4 solution,enhancement in bacterial adherence
same,EGF release/production,[3]; [25],brings down EGF production; also recorded: down regulated
same,FGFbasic release/production,[3]; [25],up regulated
same,IL8 release/production,[3]; [25],down regulated
same,cell morphology by TEM and light photomicrographs,[3]; [25],phagocytic activation
same,growth of fibroblasts (fluorometric metabolic indicator),[4],enhancement in the growth
"rPsaA: purified recombinant pneumococcal surface adhesin A, non-lipidated, donated by Aventis-Pasteur (protein) CASGKKDTTSGQKLKVVATNSIIADITKNIAGDKIDLHSIVPIGQDPHEYEPLPEDVKKTSEADLIFYNGINLETGGNAWFTKLVENAKKTENKDYFAVSDGVDVIYLEGQNEKGKEDPHAWLNLENGIIFAKNIAKQLSAKDPNNKEFYEKNLKEYTDKLDKLDKESKDKFNKIPAEKKLIVTSEGAFKYFSKAYGVPSAYIWEINTEEEGTPEQIKTLVEKLRQTKVPSLFVESSVDDRPMKTVSQDTNIPIYAQIFTDSIAEQGKEGDSYYSMMKYNLDKIAEGLAK",Anti PsaA activity (% IA of PsaA beads),PsaA beads; [5],84%
same,Anti PsaA activity (% IA of PsaA beads),PsaA beads; [6],79%
same,Anti PsaA activity (% IA of PsaA beads),PsaA beads; [7],47%
same,Anti PsaA activity (% IA of PsaA beads),PsaA beads; [8],37%
same,Anti PsaA activity (% IA of PsaA beads),PsaA beads; [9],42%
same,Anti PsaA activity (% IA of PsaA beads),PsaA beads; [10],34%
same,Anti PsaA activity (% IA of PsaA beads),PsaA beads; [11],0%
same,Anti PsaA activity (% IA of PsaA beads),PsaA beads; [12],11%
same,Anti PsaA activity (% IA of PsaA beads),PsaA beads; [13],0%
same,Anti PsaA activity (% IA of PsaA beads),PsaA beads; [14],1%
same,Anti PsaA activity (% IA of PsaA beads),PsaA beads; [15],0%
same,Anti PsaA activity (% IA of PsaA beads),PsaA beads; [16],0%
same,Anti PsaA activity (% IA of PsaA beads),PsaA beads; [17],0%
same,Anti PsaA activity (% IA of PsaA beads),PsaA beads; [18],0%
same,Anti PsaA activity (% IA of PsaA beads),PsaA beads; [19],0%
same,Anti PsaA activity (% IA of PsaA beads),PsaA beads; [20],0%
same,Anti PsaA activity (% IA of PsaA beads),PsaA beads; [21],0%
same,Anti PsaA activity (% IA of PsaA beads),PsaA beads; [22],4%
same,Anti PsaA activity (% IA of PsaA beads),PsaA beads; [23],0%
same,Anti PsaA activity (% IA of PsaA beads),PsaA beads; [24],18%
